Laboratory results: a protein production outcome set (Wang et al. 2014)

Assay: label from the status in PepcDB records
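Note: failed if final PepcDB status was selected cloned or expressed and not failed if soluble or beyond.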

Sequence	protein production
MKALNDLNIFVETARQGSFSKAANSMDMTPAAISASIKRLEGQIGFPLFVRSTRSLRLTSEGELFLDKTTQALATLQEGLDQISSARGELSGQLHITAPSDFGRNMLLDWVDEFIDLYPNVSIKLELSDSLTDMYTKPVDIAIRYGEPADSNLVVLALCGSNERILCASPEYVATHPELTSPADLTQHNCLCYMVADSVYNKWTLTRDGEKEQVVVSGNLMSNDSDLPHRLAIKGKGIANKSLMDISRDLIEGRLVRVLPEWDSGPVPLYMVCADRRLLTPTIRTFRDFIQQKCCQQRANVLATFCH	failed
ILWSQFLKFKEMELPAKEADKNRSKGIYQSLEGAVQAGQLKVPPGYHPLDVEKEWGKLHVAILEREKQLRSEFERLECLQRIVTKLQMEAGLCEEQLHQADALLQSDIRLLAAGKVPQRAGEVERDLDKADSMIRLLFNDVQTLKDGRHPQGEQMYRRVYRLHERLVAIRTEYNLRLK	failed
MDLSGVKKKSLLGVKENNKKSSTRAPSPTKRKDRSDEKSKDRSKDKGATKESSEKDRGRDKTRKRRSASSGSSSTRSRSSSTSSSGSSTSTGSSSGSSSSSASSRSGSSSTSRSSSSSSSSGSPSPSRRRHDNRRRSRSKSKPPKRDEKERKRRTLSPKPTKVHIGRLTRNVTKDHIMEIFSTYGKIKMIDMPVERMHPHLSKGYAYVEFENPDEAEXALKHMDGGQLMARDHCYCCVGTLASATTSRFSPPRRMLPPPPCGVGHPHG	not failed
MIEQELTYQDLRIPSSEIYEAMGYKDSIPDQMVIDETNTLLKRVIPLLRPRFAFFFMEGTLDIEKETLSVQSIHPPTVNPIQDTIPTRSPEQNTFSTQSKSTVFSVGKTIARQLRGSEAFVFFAATAGTEFEVFQHTLQQEEDMVKIYIADSLGSIIAEKTADCMEVALAEYIREKNWKHTNRYSPGYCGWHVSEQQKLFPLFPIAAPCGIRLTDSSLMVPIKSVSGVIGTGTNVRKLEYTCGLCTYENCYRKRKHR	not failed
MKVIIIGGETTAYYLARSMLSRKYGVVIINKDRELCEEFAKKLKATIIHGDGSHKEILRDAEVSKNDVVVILTPRDEVNLFIAQLVMKDFGVKRVVSLVNDPGNMEIFKKMGITTVLNLTTLITNTVEALIFPDEFSSIIPLEQ	not failed
MRKVLVTVLLVLTVLSLFSAVKIAVILPMTGGISAFGRMVWEGIQIAHEEKPTVLGEEVELVLLDTRSEKTEAANAAARAIDKEKVLAIIGEVASAHSLAIAPIAEENKVPMVTPASTNPLVTQGRKFVSRVCFIDPFQGAAMAVFAYKNLGAKRVVVFTDVEQDYSVGLSNFFINKFTELGGQVKRVFFRSGDQDFSAQLSVAMSFNPDAIYITGYYPEIALISRQARQLGFTGYILAGDGADAPELIEIGGEAVEGLLFTTHYHPKAASNPVAKKFVEVYKEKYGKEPAALNALGYDAYMVLLDAIERAGSFDREKIAEEIRKTRNFNGASGIINIDENGDAIKSVVVNIVKNGSVDFEAVINPDDLK	not failed
VAGKVEARKAALREKLIDLAEAQIEAEGLASLRARELARQADCAVGAIYTHFQDLNALTLEVNGRTFARLGAAVGAVVADGQDDHPNERLIAMSHAYLAFAREHPKLWRALFDVEMRSDGPVPQWYGHAMAQLFSYITTPLAKIFPESDDAELDLMTRTLFSSVHGIVLLGLENRISGVPGEQLKTMIRLLLEQVGR	not failed
MSLQENISVTDSYSTGNAAQAMLEKLLQIYDVKMLVAQLNGVGENHWSAAILKRALANDSAWHRLSEKEFAHLQTLLPKPPEHHPHYAFRFIDLFAGIGGIRRGFESIGGQCVFTSEWNKHAVRTYKANHYCDPATHHFNEDIRDITLSHQEGVSDEAAAEHIRQHIPEHDVLLAGFPCQPFSLAGVSKKNSLGRAHGFACDTQGTLFFDVVRIIDARRPAMFVLENVKNLKSHDKGKTFRIIMQTLDELGYDVADAEDNGPDDPKIIDGKHFLPQHRERIVLVGFRRDLNLKADFTLRDISECFPAQRVTLAQLLDPMVEAKYILTPVLWKYLYRYAKKHQARGNGFGYGMVYPNNPQSVTRTLSARYYKDGAEILIDRGWDMATGEKDFDDPLNQQHRPRRLTPRECARLMGFEAPGEAKFRIPVSDTQAYRQFGNSVVVPVFAAVAKLLEPKIKQAVALRQQEAQHGRRSREGHHHHHH	not failed
MSLDYTYADDSLTLHTDMYQINMMQTYWELGRADLHAVFECYFREMPFNHGYAIFAGLERLVNYLENLTFTESDIAYLREVEEYPEDFLTYLANFEFKCTVRSALEGDLVFNNEPLIQIEGPLAQCQLVETALLNMVNFQTLIATKAARIKSVIGDDPLLEFGTRRAQELDAAIWGTRAAYIGGADATSNVRAGKIFGIPVSGTHAHSLVQSYGNDYEAFMAYAKTHRDCVFLVDTYDTLKAGVPSAIRVAREMGDKINFLGVRIDSGDMAYISKRVREQLDEAGFTEAKIYASNDLDENTILNLKMQKSKIDVWGVGTKLITAYDQPALGAVFKLVSIEGEDGQMKDTIKLSSNAEKVTTPGKKQVWRITRKSDKKSEGDYVTLWNEDPRQEEEIYMFHPVHTFINKYVRDFEARPVLQDIFVEGKRVYELPTLDEIKQYAKENLDSLWEEYKRDLNPQKYPVDLSTDCWNHKMNLLEKVRKDVKHLTETVNKEAEGHHHHHH	not failed
MPSPSGSSTLSKPAPRFASIGSPYFGIMLAIMAVVLILSNIGASKGVVLGPIITDGGFFLFPLAYILGDVMSEVYGFKVARKAIITSFALSVFASLCYWIIIVLPGFNDEYGTAKQAAIEGALGPVPLIVLGSLLAFLAGQTINSWILVKMKARTGEKSLWARLMGSSVVGEFVDTLIFCSIAASVIGITDFGSFLNYVLVGFVYKTAVEFLFVPVTVLVVGWIKKREPSYGVVAA	failed
MDASDDSLIGRITEVRAGRFAARLLSDEEGFRNEVSLGDEVQHPGQVGTYVSIRNGTFRILALVREVSGGAAGSAAGSAMQLVPLGEFNDKGAFSRGVRRYPVPGAEVHAASPQEINAVFARTRNLRFNPGYLPNHPATGVYLDPSALCSRHFAILGQSGAGKSWTVASLLQRMLASAPRAHIILLDLHGEYCWRGADGVLHSTFPPMATRAMDARELEIPYWLMSFAELVDLLIERDDPAASIQTAFLRETVFELKRRSARELGLEGVSIDAPVYFSLQEVYERFKEANEHRTDFGKTKGPLFGQFDDFLLKLGSRLHDVRYDFLLNPARRTRSESLPDLLRDFVGLGEPRCQISVIDLSPVPFDVRPTVSAQIGRLAFEFNYWNLDRREFPILLVCEEAHTYIPRERATQYEGTRKSMERIAKEGRKYGVGLAVVSQRPHELSETVLSQCGSYICLRISNPDDQAYVRKLVPEGEADLVDVLTALGRGEALILGEATPLPVRCQIFRPDPPPNSNDVDFHKAWNADTANLDIGAIVRRWWNQGR	failed
MNQMQGRLVAGRYRLGEAIGSGGMGRVWRAHDEVLHRTVAIKELTAALYVSESDQAILLARTRGEARAAARINHSAVVTVHDVLEHDGRPWIVMELVEGRSLADAVKEEERVDPREAARVGLWVLRALRAAHTAGVLHRDVKPGNVLLADDGRVLLTDFGIAQIEGDSTITRTGEVVGSVDYLAPERVRGHDPGPSSDLWALGATLYTAVEGRSPFRRTSPLTTMQAVVEEEATEPRYAGALAPVISALLRKDPAERPDATEAEHLLAQAAEGRRPDAAQAYVPTTRYEGPPRAGDTAVQGMPAGGSGATPYPQAGGSGATPYPPTTGPTGAGPAPTGHTRGGYTQVGHTEGGYTAPGYAPAPAVGGAAPGRARRVRMRTLALVVAVAALIGAGTAVVLHQRDEGGSSAGADPTQGPTGSAAPSPSPSASATTGKGPGGSVPADWTRRDDPLGFSLYLPENWQRRDFDGDSGELRQIDYTPDGGNHVLRISVDTAPDYNDPYAHQQDLDAQLLQRLVDYRRVKLERAGYRDRDSARWEYTWTALAKDTEFPGPRRAVSQMYMSRDGVEYALNMTGPAGDWPTTQRRFKAVLQGWQEETG	failed
SQPDHGRLSPPEAPDRPTISTASETSVYVTWIPRGNGGFPIQSFRVEYKKLKKVGDWILATSAIPPSRLSVEITGLEKGISYKFRVRALNMLGESEPSAPSRPYVVSG	not failed
MTDPADRPLIERIRACRLCADRFAATHTAHEPRPVVWFRPGARLLIAGQAPGARVHASGRPFTDPSGDRLRDWLGIGEETFYDRSRVAVVPMAFCFPGYNSQGADLPPPPVCGKTWHNQVMGELGEMPLSVLVGGHALKYHLGARSPVTETVAAWRDHAPRVFALPHPSWRNTGWLRKNPWFEAELLPVLRARVKEVLNEPDRSANPD	failed
VIRDLQKLLASMEPSLNPGTYAFVVAPADIQIPQDQIVASVCEPEGQSLVIPEQLAHERGLPVTYSAAWITLTVHSDLAAVGLTATFAGALGQAGISCNVIAGVHHDHLFVPADQAQQAMAVLFDLQRAAA	failed
MAIGERIHFFRLLRGMTQKYLGTAVGFPERSADVRLAQYETGSRKPKADLTAALAQVLDVSPQALDVPDIDSQIGLMHTLFTLEDVYGLTISEADGEVCLKVNKDKGKKAYELLQMLYVWKEQADKLSAGEISKDDYDRWRYYYPKYDTTQLWAKVPSQQLSDTLVEAFQDKLKKDELEHHHHHH	failed
MLEVHIPSVGPEAEGPRQSPEKSHMVFRVEVLCSGRRHTVPRRYSEFHALHKRIKKLYKVPDFPSKRLPNWRTRGLEQRRQGLEAYIQGILYLNQEVPKELLEFLRLRHFPTDPKASNWG	not failed
MAIDPNSIGAVTEPMLFEWTDRDTLLYAIGVGAGTGDLAFTTENSHGIDQQVLPTYAVICCPAFGAAAKVGTFNPAALLHGSQGIRLHAPLPAAGKLSVVTEVADIQDKGEGKNAIVVLRGRGCDPESGSLVAETLTTLVLRGQGGFGGARGERPAAPEFPDRHPDARIDMPTREDQALIYRLSGDRNPLHSDPWFATQLAGFPKPILHGLCTYGVAGRALVAELGGGVAANITSIAARFTKPVFPGETLSTVIWRTEPGRAVFRTEVAGSDGAEARVVLDDGAVEYVAG	not failed
MPHFLAKLDFKPLEYPLIEGDFCFHREFLSLKNPTKSCVYASFKDRIFLLQKIRRANDFLIKSEKATPLKREVLKQALRIYSQSFEVISHNLQENSKHASGKKTLDLGTFEDFIQKNQAPILIEIGFGSGRHLIELAKNNPTKTCLGIEIHTPSIAQALKQIELLDLKNLHILQGDGRLVLESMPNHRCEKIFVHFPVPWNEKKHRRVLSEKFLNEALRVLKPRGFLELRTDDSLYFEDSLKLALKNFQCEIEIKKNAQIPVVSKYEARWNKLKKDIYDLRIYSLEWNETPFDNHAFDFSFDTITISKKSVGTILKTKKIIQEGYFVHVCNIYENKGDFLVELSMGDFDWPVRLFVLLTENQIFYLNKSPLKTLNNHKAHLLLQNILSQKGIG	failed
MNTLRTAMLLAAMTALFMGVGFLIGGSGGMMIALLIAAGTNLFSYWNADKMVLSMNRAVEVDEKNAPEYYAIVQALAKQAGLPMPRTYLIDNPQPNAFATGRNPQNAAVAASTGLLQRLTHEEVAAVMAHELAHVQHRDTLTMTIVATFAGAISMLGNFAFFLGGNRDNNPFGFVGVLAAMIVAPFAAMIVQMAVSRTREYEADRRGAEICGHPLWLASALDKIARGAERIPNPDAERNPAMAHLFIINPLHGERMDNLFSTHPSTDNRIAALQEMAQQMAGGTQAAPRPTPRQAGEQQPSGPWGQAPQAEQPAEPERPKANPWGRNPTGPKGRWS	failed
MRHISPEELIALHDANISRYGGLPGMSDPGRAEAIIGRVQARVAYEEITDLFEVSATYLVATARGHIFNDANKRTALNSALLFLRRNGVQVFDSPELADLTVGAATGEISVSSVADTLRRLYGSAELEHHHHHH	not failed
SLHEEADHRVTDHGPRPFVVNIEDETKRNRAFRRALWTGDHLQVTLMSIQVGEDIGLEIHPHLDQFLRVEEGRGLVQMGHRQDNLHFQEEVFDDYAILIPAGTWHNVRNTGNRPLKLYSIYAPPQHPHGTVHETKAIAMAAEEHHHL	not failed
MAQRERKAGVVKRDKADKWNHVETARYFRDLQENEVRTMHYLGLAYVVLSRRPNLQLKVPLSTQNYEDGAIVGAGERGGYALQLLFTCAANYPLARPLVEIVEKRNVSDAFEQVLRKEIDLILEEHLGLQMIVPVVTRLQITLNTEMKRQRF	failed
